{"source": "patent US6083917", "note": "Values joined by “and” are separate entries in the source; they are usually repeats but may differ in a detail not shown here. Equal values may be shown once.", "data": [{"biological_target": "rat brain protein farnesyltransferase (rat)", "units": {"Concentration for 50% Inhibition (farnesylation of p21^H-ras)": "µM"}, "values": [{"substance": "CIIS (peptide)", "Concentration for 50% Inhibition (farnesylation of p21^H-ras)": 0.35}, {"substance": "CVIS (peptide)", "Concentration for 50% Inhibition (farnesylation of p21^H-ras)": 1}, {"substance": "CIIM (peptide)", "Concentration for 50% Inhibition (farnesylation of p21^H-ras)": 0.15}, {"substance": "CVIA (peptide)", "Concentration for 50% Inhibition (farnesylation of p21^H-ras)": 5}, {"substance": "CLIL (peptide)", "Concentration for 50% Inhibition (farnesylation of p21^H-ras)": 17}, {"substance": "CVLS (peptide)", "Concentration for 50% Inhibition (farnesylation of p21^H-ras)": 3}, {"substance": "CLLL (peptide)", "Concentration for 50% Inhibition (farnesylation of p21^H-ras)": 22}, {"substance": "CAIM (peptide)", "Concentration for 50% Inhibition (farnesylation of p21^H-ras)": 0.15}, {"substance": "CSIM (peptide)", "Concentration for 50% Inhibition (farnesylation of p21^H-ras)": 0.2}, {"substance": "CTVA (peptide)", "Concentration for 50% Inhibition (farnesylation of p21^H-ras)": 30}, {"substance": "CAIL (peptide)", "Concentration for 50% Inhibition (farnesylation of p21^H-ras)": 100}, {"substance": "CVIM (peptide)", "Concentration for 50% Inhibition (farnesylation of p21^H-ras)": 0.15}, {"substance": "CVLM (peptide)", "Concentration for 50% Inhibition (farnesylation of p21^H-ras)": 0.15}, {"substance": "CCVQ (peptide)", "Concentration for 50% Inhibition (farnesylation of p21^H-ras)": 0.35}, {"substance": "CIKS (peptide)", "Concentration for 50% Inhibition (farnesylation of p21^H-ras)": "> 100"}, {"substance": "CVIL (peptide)", "Concentration for 50% Inhibition (farnesylation of p21^H-ras)": 11}, {"substance": "CIIC (peptide)", "Concentration for 50% Inhibition (farnesylation of p21^H-ras)": 0.35}, {"substance": "CVVM (peptide)", "Concentration for 50% Inhibition (farnesylation of p21^H-ras)": 0.15}]}, {"biological_target": "rat brain protein farnesyltransferase (rat)", "remark": "another data set of the same source", "values": [{"substance": "N-AcKCVFM (peptide)", "Concentration for 50% Inhibition of Farnesylation of p21^H-ras": "0.3 µM"}, {"substance": "N-CholylCVFM (peptide)", "Concentration for 50% Inhibition of Farnesylation of p21^H-ras": "0.21 µM"}, {"substance": "KCVFM (peptide)", "Concentration for 50% Inhibition of Farnesylation of p21^H-ras": "1.1 µM"}, {"substance": "N-Octanoyl-CVFM (peptide)", "Concentration for 50% Inhibition of Farnesylation of p21^H-ras": "0.35 µM"}, {"substance": "N-AcCVWM (peptide)", "Concentration for 50% Inhibition of Farnesylation of p21^H-ras": "3.7 µM"}, {"substance": "CVIM (peptide)", "Concentration for 50% Inhibition of Farnesylation of p21^H-ras": "0.15 µM"}, {"substance": "N-AcMCVFM (peptide)", "Concentration for 50% Inhibition of Farnesylation of p21^H-ras": "1.4 µM"}, {"substance": "CVWM (peptide)", "Concentration for 50% Inhibition of Farnesylation of p21^H-ras": "0.32 µM"}, {"substance": "N-AcCVFM (peptide)", "Concentration for 50% Inhibition of Farnesylation of p21^H-ras": "0.25 µM"}, {"substance": "N-AcPCVFM (peptide)", "Concentration for 50% Inhibition of Farnesylation of p21^H-ras": "0.2 µM"}, {"substance": "N-AcCVIM (peptide)", "Concentration for 50% Inhibition of Farnesylation of p21^H-ras": "0.15 µM"}, {"substance": "CVFM (peptide)", "Concentration for 50% Inhibition of Farnesylation of p21^H-ras": "0.06 µM and 0.032 µM and 0.09 µM"}, {"substance": "N-AcDCVFM (peptide)", "Concentration for 50% Inhibition of Farnesylation of p21^H-ras": "1.9 µM"}, {"substance": "N-AcCCVFM (peptide)", "Concentration for 50% Inhibition of Farnesylation of p21^H-ras": "0.11 µM"}, {"substance": "N-AcGCVFM (peptide)", "Concentration for 50% Inhibition of Farnesylation of p21^H-ras": "0.43 µM"}, {"substance": "N-AcECVFM (peptide)", "Concentration for 50% Inhibition of Farnesylation of p21^H-ras": "2.4 µM"}, {"substance": "CCVFM (peptide)", "Concentration for 50% Inhibition of Farnesylation of p21^H-ras": "0.44 µM"}, {"substance": "N-AcSCVFM (peptide)", "Concentration for 50% Inhibition of Farnesylation of p21^H-ras": "0.23 µM"}, {"substance": "N-AcHCVFM (peptide)", "Concentration for 50% Inhibition of Farnesylation of p21^H-ras": "0.24 µM"}]}, {"biological_target": "rat brain protein farnesyltransferase (rat)", "remark": "another data set of the same source", "units": {"affinity for the enzyme as estimated by the concentration required for 50% inhibition": "fold"}, "values": [{"substance": "CVIA (peptide)", "affinity for the enzyme as estimated by the concentration required for 50% inhibition": "> 30"}, {"substance": "CVIM with lysine at the A2 position (peptide)", "affinity for the enzyme as estimated by the concentration required for 50% inhibition": "> 30"}, {"substance": "CVIM with lysine at the X position (peptide)", "affinity for the enzyme as estimated by the concentration required for 50% inhibition": "> 30"}, {"substance": "CVAM (peptide)", "affinity for the enzyme as estimated by the concentration required for 50% inhibition": "> 30"}]}, {"biological_target": "rat brain protein farnesyltransferase (rat)", "remark": "another data set of the same source", "units": {"affinity for the enzyme relative to CVIM (from 50% inhibition)": "fold", "half-maximal inhibition of farnesylation of p21^H-ras": "nM"}, "values": [{"substance": "CVFM (peptide)", "affinity for the enzyme relative to CVIM (from 50% inhibition)": 6, "half-maximal inhibition of farnesylation of p21^H-ras": 25}]}, {"biological_target": "rat brain protein farnesyltransferase (rat)", "remark": "another data set of the same source", "units": {"Concentration for 50% Inhibition of Farnesylation of p21^H-ras": "µM", "affinity for the enzyme (from 50% inhibition)": "fold"}, "values": [{"substance": "CKIM (peptide)", "Concentration for 50% Inhibition of Farnesylation of p21^H-ras": 0.7}, {"substance": "CPIM (peptide)", "Concentration for 50% Inhibition of Farnesylation of p21^H-ras": 8}, {"substance": "CVIM with glycine at the A2 position (peptide)", "Concentration for 50% Inhibition of Farnesylation of p21^H-ras": 8}, {"substance": "CEIM (peptide)", "Concentration for 50% Inhibition of Farnesylation of p21^H-ras": 1.5}, {"substance": "CGIM (peptide)", "Concentration for 50% Inhibition of Farnesylation of p21^H-ras": 4}, {"substance": "CVIM with lysine at the A2 position (peptide)", "affinity for the enzyme (from 50% inhibition)": "> 50"}, {"substance": "CVIM with glutamic acid at the A2 position (peptide)", "affinity for the enzyme (from 50% inhibition)": "> 50"}, {"substance": "CVPM (peptide)", "Concentration for 50% Inhibition of Farnesylation of p21^H-ras": 20}]}, {"biological_target": "rat brain protein farnesyltransferase (rat)", "remark": "another data set of the same source", "units": {"Concentration for 50% Inhibition of Farnesylation of p21^H-ras": "µM"}, "values": [{"substance": "CVIM with glycine at the X position (peptide)", "Concentration for 50% Inhibition of Farnesylation of p21^H-ras": "> 40"}, {"substance": "CVIM with glutamic acid at the X position (peptide)", "Concentration for 50% Inhibition of Farnesylation of p21^H-ras": "> 40"}, {"substance": "CVIM with lysine at the X position (peptide)", "Concentration for 50% Inhibition of Farnesylation of p21^H-ras": "> 40"}, {"substance": "CVIF (peptide)", "Concentration for 50% Inhibition of Farnesylation of p21^H-ras": 0.5}]}, {"biological_target": "rat brain protein farnesyltransferase (rat)", "remark": "another data set of the same source", "units": {"Concentration for 50% Inhibition of Farnesylation of p21^H-ras": "µM"}, "values": [{"substance": "CVIL (peptide)", "Concentration for 50% Inhibition of Farnesylation of p21^H-ras": 12}]}, {"biological_target": "rat brain protein farnesyltransferase (rat)", "remark": "another data set of the same source", "units": {"concentration giving 50% inhibition of farnesylation of p21^H-ras (FIG. 23A)": "µM"}, "values": [{"substance": "N-AcCVFM (peptide)", "concentration giving 50% inhibition of farnesylation of p21^H-ras (FIG. 23A)": 0.27}, {"substance": "CVFM (peptide)", "concentration giving 50% inhibition of farnesylation of p21^H-ras (FIG. 23A)": 0.07}]}]}
